Results published in patent US20140087995A1 (published 2014).
Numbered stars: 1 amine (or outer) side, 2 acyl side, 3 side chain; on linkers, the order of the positions; unused ones are H or OH. Bridge positions count the residues as written; N and C are the ends. Square brackets hold non-standard residues; d marks the D form. Side chains are listed from the residue outwards. Ends that are not written are not given here. * marks the point of attachment. C20 diacid = O=C(O)CCCCCCCCCCCCCCCCCCC(=O)*; γGlu = O=C(O)[C@H](CCC(=O)[*:2])N[*:1]

Assays:
rat calcitonin receptor [1] = target: T1, rat calcitonin receptor (rat, UniProt P32214 25-516); experiment: ratio IC50 rat calcitonin receptor / IC50 rat amylin receptor (Assays VIII and VI)
T1 construct: whole, on cells; Used as membranes prepared from the transfected cells; also called rCTR; rat calcitonin (a) receptor
T1 sequence (looked up): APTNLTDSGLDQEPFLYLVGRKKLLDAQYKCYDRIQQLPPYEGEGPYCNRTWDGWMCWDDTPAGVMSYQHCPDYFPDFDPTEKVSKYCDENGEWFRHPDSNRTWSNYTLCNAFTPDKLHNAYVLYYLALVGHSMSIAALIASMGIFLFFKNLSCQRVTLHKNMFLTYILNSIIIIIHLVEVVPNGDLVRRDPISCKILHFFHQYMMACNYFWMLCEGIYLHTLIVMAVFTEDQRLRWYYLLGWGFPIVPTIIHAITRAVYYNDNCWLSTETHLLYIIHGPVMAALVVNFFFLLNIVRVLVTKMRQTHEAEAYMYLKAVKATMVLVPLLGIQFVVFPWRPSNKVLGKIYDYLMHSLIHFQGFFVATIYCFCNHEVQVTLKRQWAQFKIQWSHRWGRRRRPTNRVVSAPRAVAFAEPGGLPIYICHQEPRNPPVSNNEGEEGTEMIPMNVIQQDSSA

[2] = target: T2, human calcitonin receptor (human, UniProt P30988 25-474); experiment: ratio IC50 human calcitonin receptor / IC50 human amylin receptor (Assays VII and V)
T2 construct: whole, on cells; Used as membranes prepared from the transfected cells (Assay VII); also called hCTR; hCT
T2 sequence (looked up): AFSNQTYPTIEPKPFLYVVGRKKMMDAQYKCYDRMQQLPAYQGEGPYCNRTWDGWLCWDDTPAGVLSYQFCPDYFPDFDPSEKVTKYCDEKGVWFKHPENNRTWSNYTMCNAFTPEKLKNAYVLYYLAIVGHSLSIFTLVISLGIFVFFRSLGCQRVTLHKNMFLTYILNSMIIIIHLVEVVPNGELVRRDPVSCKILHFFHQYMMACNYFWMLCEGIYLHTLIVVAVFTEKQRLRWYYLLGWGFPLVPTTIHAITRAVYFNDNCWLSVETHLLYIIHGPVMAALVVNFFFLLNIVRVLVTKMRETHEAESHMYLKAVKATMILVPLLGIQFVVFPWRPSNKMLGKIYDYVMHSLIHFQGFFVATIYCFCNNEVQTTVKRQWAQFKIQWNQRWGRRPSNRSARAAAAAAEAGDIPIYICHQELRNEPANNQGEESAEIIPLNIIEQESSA
Summary of the method: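 Competition binding by SPA with cell membranes (35 ng/μL) and SPA beads in 50 mM Hepes pH 7.4 with 1 mM CaCl2, 5 mM MgCl2, 0.1% OA and 0.02% Tween20. Incubated 120 min at 25 °C with shaking, then counted.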

rat calcitonin receptor [3] = target: T1, rat calcitonin receptor; experiment: SPA competition with 125I-calcitonin, membranes of BHK cells with rat calcitonin receptor (Assay VIII)
[4] = target: T3, rat amylin receptor (rat calcitonin receptor + rat RAMP 3) (rat, UniProt P32214 25-516; Q9JJ73 23-147); experiment: SPA competition with 125I-rat amylin, membranes of BHK cells with rat calcitonin receptor + rat RAMP3 (Assay VI)
T3 construct: whole, on cells; Used as membranes prepared from the transfected cells; also called rAmylin-R; rat amylin 3(a) receptor
T3 sequence (looked up) 1: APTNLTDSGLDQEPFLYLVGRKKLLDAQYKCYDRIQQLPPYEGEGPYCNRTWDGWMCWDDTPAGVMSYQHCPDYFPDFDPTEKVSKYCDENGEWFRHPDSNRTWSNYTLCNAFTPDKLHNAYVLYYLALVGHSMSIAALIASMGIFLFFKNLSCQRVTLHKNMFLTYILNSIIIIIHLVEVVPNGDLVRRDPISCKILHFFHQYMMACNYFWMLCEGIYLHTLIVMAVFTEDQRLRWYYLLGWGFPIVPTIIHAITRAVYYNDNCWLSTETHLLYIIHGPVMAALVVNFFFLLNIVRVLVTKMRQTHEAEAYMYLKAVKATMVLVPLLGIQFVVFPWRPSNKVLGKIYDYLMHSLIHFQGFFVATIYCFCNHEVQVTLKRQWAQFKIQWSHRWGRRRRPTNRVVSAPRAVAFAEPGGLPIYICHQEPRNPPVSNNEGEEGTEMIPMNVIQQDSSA
T3 sequence (looked up) 2: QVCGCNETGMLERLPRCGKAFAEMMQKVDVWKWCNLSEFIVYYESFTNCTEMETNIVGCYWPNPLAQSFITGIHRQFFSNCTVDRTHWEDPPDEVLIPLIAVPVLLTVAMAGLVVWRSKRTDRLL

[5] = target: T4, human calcitonin receptor (human, UniProt P30988 25-474); experiment: SPA competition against 125I-calcitonin, membranes of BHK cells with human calcitonin receptor (Assay VII)
T4 construct: whole, on cells; Membranes of BHK cells stably transfected with the human calcitonin receptor (Assay VII); also called hCTR; hCT
T4 sequence (looked up): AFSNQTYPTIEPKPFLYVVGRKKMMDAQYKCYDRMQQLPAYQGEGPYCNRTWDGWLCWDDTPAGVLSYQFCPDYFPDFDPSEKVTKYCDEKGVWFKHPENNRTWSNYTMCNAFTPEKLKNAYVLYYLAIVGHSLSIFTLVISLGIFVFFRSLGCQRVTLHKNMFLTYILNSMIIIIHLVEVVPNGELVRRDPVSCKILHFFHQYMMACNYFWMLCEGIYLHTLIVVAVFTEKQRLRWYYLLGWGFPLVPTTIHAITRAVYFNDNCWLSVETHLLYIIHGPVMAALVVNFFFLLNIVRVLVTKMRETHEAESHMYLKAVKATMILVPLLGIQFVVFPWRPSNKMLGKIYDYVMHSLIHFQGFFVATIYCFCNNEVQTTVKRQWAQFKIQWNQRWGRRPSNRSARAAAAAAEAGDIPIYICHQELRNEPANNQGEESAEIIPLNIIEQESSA
Description: Membranes were prepared in the following way; the cells were rinsed with PBS and incubated with Versene for approximately 5 min before harvesting. The cells were flushed with PBS and the cell-suspension was centrifuged for 5 min at 1000 rpm. Cells were homogenized (Ultrathurrax) in a buffer containing 20 mM Na-HEPES and 10 mM EDTA (pH 7.4) and centrifuged at 20.000 rpm for 15 min. The resulting pellet was resuspended, homogenized and centrifuged (20.000 rpm, 15 min) in a buffer containing 20 mM Na-HEPES and 0.1 mM EDTA (pH 7.4, buffer 2). The resulting pellet was resuspended in buffer 2 and protein concentration was measured (BCA protein Assay, Pierce). The homogenate was kept cold during the whole procedure. The membranes were kept at −80° C. until use. Assay was performed in a 384 well Optiplate (PerkinElmer) in a total volume of 40 ul. Membranes were mixed with SPA beads. Final concentration of membranes 35 ng/μL final and Final concentration of SPA beads was 0.05 mg/well. Test-compounds were dissolved in DMSO and further diluted in assay buffer (50 mM Hepes, pH 7.4, 1 mM CaCl2, 5 mM MgCl₂, 0.1% OA and 0.02% Tween20). […] The final mixture was incubated for 120 min with shaking at 400 rpm at 25° C. prior to centrifugation (1500 rpm, 10 min). Samples were analyzed on TopCounter™ (Packard). The […] was calculated using (one site binding competition analysis) GraphPad Prism5 as a measure of receptor affinity.

B1: N^ε1-[(4S)--4-carboxy-4-(19-carboxynonadecanoylamino)butanoyl]-[Glu14,Arg17,Pro21,Pro27,Pro37]-h-amylin (peptide)
peptide: K([γGlu-C20 diacid])CNTATCATQRLAEFLRHSSPNFGAIPSSTNVGSNTP-NH2
modifications: disulfide 2-7; N-terminus assumed
SMILES: CC[C@H](C)[C@H](NC(=O)[C@H](C)NC(=O)CNC(=O)[C@H](Cc1ccccc1)NC(=O)[C@H](CC(N)=O)NC(=O)[C@@H]1CCCN1C(=O)[C@H](CO)NC(=O)[C@H](CO)NC(=O)[C@H](Cc1c[nH]cn1)NC(=O)[C@H](CCCNC(=N)N)NC(=O)[C@H](CC(C)C)NC(=O)[C@H](Cc1ccccc1)NC(=O)[C@H](CCC(=O)O)NC(=O)[C@H](C)NC(=O)[C@H](CC(C)C)NC(=O)[C@H](CCCNC(=N)N)NC(=O)[C@H](CCC(N)=O)NC(=O)[C@@H](NC(=O)[C@H](C)NC(=O)[C@@H]1CSSC[C@H](NC(=O)[C@@H](N)CCCCNC(=O)CC[C@H](NC(=O)CCCCCCCCCCCCCCCCCCC(=O)O)C(=O)O)C(=O)N[C@@H](CC(N)=O)C(=O)N[C@@H]([C@@H](C)O)C(=O)N[C@@H](C)C(=O)N[C@@H]([C@@H](C)O)C(=O)N1)[C@@H](C)O)C(=O)N1CCC[C@H]1C(=O)N[C@@H](CO)C(=O)N[C@@H](CO)C(=O)N[C@H](C(=O)N[C@@H](CC(N)=O)C(=O)N[C@H](C(=O)NCC(=O)N[C@@H](CO)C(=O)N[C@@H](CC(N)=O)C(=O)N[C@H](C(=O)N1CCC[C@H]1C(N)=O)[C@@H](C)O)C(C)C)[C@@H](C)O
notes: Derivative of human amylin; also called compound 12
Ratio rCT/rAmylin binding (rat calcitonin receptor [1]): 5
Ratio hCT/hAmylin binding [2]: 2.5
IC50 (rat calcitonin receptor [3]): 2.71 nM
IC50 [4]: 0.544 nM

B2: N{Alpha-1}-[(4S)-4-carboxy-4-(19-carboxynonadecanoylamino)butanoyl]-[Glu14,Arg17,Pro21,Pro27,Lys34]-h-amylin (peptide)
peptide: {C20 diacid-γGlu}-KCNTATCATQRLAEFLRHSSPNFGAIPSSTNVGKNTY-NH2
modifications: disulfide 2-7
SMILES: CC[C@H](C)[C@H](NC(=O)[C@H](C)NC(=O)CNC(=O)[C@H](Cc1ccccc1)NC(=O)[C@H](CC(N)=O)NC(=O)[C@@H]1CCCN1C(=O)[C@H](CO)NC(=O)[C@H](CO)NC(=O)[C@H](Cc1c[nH]cn1)NC(=O)[C@H](CCCNC(=N)N)NC(=O)[C@H](CC(C)C)NC(=O)[C@H](Cc1ccccc1)NC(=O)[C@H](CCC(=O)O)NC(=O)[C@H](C)NC(=O)[C@H](CC(C)C)NC(=O)[C@H](CCCNC(=N)N)NC(=O)[C@H](CCC(N)=O)NC(=O)[C@@H](NC(=O)[C@H](C)NC(=O)[C@@H]1CSSC[C@H](NC(=O)[C@H](CCCCN)NC(=O)CC[C@H](NC(=O)CCCCCCCCCCCCCCCCCCC(=O)O)C(=O)O)C(=O)N[C@@H](CC(N)=O)C(=O)N[C@@H]([C@@H](C)O)C(=O)N[C@@H](C)C(=O)N[C@@H]([C@@H](C)O)C(=O)N1)[C@@H](C)O)C(=O)N1CCC[C@H]1C(=O)N[C@@H](CO)C(=O)N[C@@H](CO)C(=O)N[C@H](C(=O)N[C@@H](CC(N)=O)C(=O)N[C@H](C(=O)NCC(=O)N[C@@H](CCCCN)C(=O)N[C@@H](CC(N)=O)C(=O)N[C@H](C(=O)N[C@@H](Cc1ccc(O)cc1)C(N)=O)[C@@H](C)O)C(C)C)[C@@H](C)O
notes: Derivative of human amylin; also called compound 36
Ratio rCT/rAmylin binding (rat calcitonin receptor [1]): 32.4
Ratio hCT/hAmylin binding [2]: 15.7
IC50 (rat calcitonin receptor [3]): 60.1 nM
IC50 [4]: 1.86 nM

B3: N^ε1-[(4S)-4-carboxy-4-[[(4S)-4-carboxy-4-(19-carboxynonadecanoylamino)butanoyl]amino]butanoyl]-[D-Asp14,Arg17,Pro21,Pro27,Arg35]-h-amylin (peptide)
peptide: K([γGlu-γGlu-C20 diacid])CNTATCATQRLA[dD]FLRHSSPNFGAIPSSTNVGSRTY-NH2
modifications: disulfide 2-7; N-terminus assumed
SMILES: CC[C@H](C)[C@H](NC(=O)[C@H](C)NC(=O)CNC(=O)[C@H](Cc1ccccc1)NC(=O)[C@H](CC(N)=O)NC(=O)[C@@H]1CCCN1C(=O)[C@H](CO)NC(=O)[C@H](CO)NC(=O)[C@H](Cc1c[nH]cn1)NC(=O)[C@H](CCCNC(=N)N)NC(=O)[C@H](CC(C)C)NC(=O)[C@H](Cc1ccccc1)NC(=O)[C@@H](CC(=O)O)NC(=O)[C@H](C)NC(=O)[C@H](CC(C)C)NC(=O)[C@H](CCCNC(=N)N)NC(=O)[C@H](CCC(N)=O)NC(=O)[C@@H](NC(=O)[C@H](C)NC(=O)[C@@H]1CSSC[C@H](NC(=O)[C@@H](N)CCCCNC(=O)CC[C@H](NC(=O)CC[C@H](NC(=O)CCCCCCCCCCCCCCCCCCC(=O)O)C(=O)O)C(=O)O)C(=O)N[C@@H](CC(N)=O)C(=O)N[C@@H]([C@@H](C)O)C(=O)N[C@@H](C)C(=O)N[C@@H]([C@@H](C)O)C(=O)N1)[C@@H](C)O)C(=O)N1CCC[C@H]1C(=O)N[C@@H](CO)C(=O)N[C@@H](CO)C(=O)N[C@H](C(=O)N[C@@H](CC(N)=O)C(=O)N[C@H](C(=O)NCC(=O)N[C@@H](CO)C(=O)N[C@@H](CCCNC(=N)N)C(=O)N[C@H](C(=O)N[C@@H](Cc1ccc(O)cc1)C(N)=O)[C@@H](C)O)C(C)C)[C@@H](C)O
notes: Residue 14 is D-aspartic acid (printed 14d)
IC50 [5]: 112 nM
